In US20150147318A1 (ZOETIS SERVICES, published 2015):

Assays:
[1] = target: T1, recombinant canine Nerve Growth Factor (Canis lupus familiaris NGF) (canine (Canis lupus familiaris), UniProt Q29074 110-229 (pig entry), limits assumed); test: SPR, Biacore T100, dog NGF; run 11/24
T1 construct: also called canine NGF; Dog NGF
T1 chain: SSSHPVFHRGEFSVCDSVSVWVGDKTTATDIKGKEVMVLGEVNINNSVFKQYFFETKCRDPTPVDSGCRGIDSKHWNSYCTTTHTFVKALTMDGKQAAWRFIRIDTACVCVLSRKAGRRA

[2] = target: T1, recombinant canine Nerve Growth Factor …; test: SPR, Biacore T100, dog NGF; run 11/29
[3] = target: T1, recombinant canine Nerve Growth Factor …; test: SPR, Biacore T100, dog NGF; run 11/22
[4] = target: T1, recombinant canine Nerve Growth Factor …; test: SPR trkA inhibition: mAb pre-incubated with NGF, binding of NGF to trkA measured in RU
[5] = target: T1, recombinant canine Nerve Growth Factor …; test: cell-based or functional assay
[6] = target: T1, recombinant canine Nerve Growth Factor …; test: SPR, Biacore T100, dog NGF; run 11/29; comment 'Agg?'
[7] = target: T1, recombinant canine Nerve Growth Factor …; test: SPR, Biacore T100, dog NGF; run 11/24; comment 'Agg?'
[8] = target: T1, recombinant canine Nerve Growth Factor …; test: SPR, 1:1 binding fit, canine NGF

B1: LTM construct 45 (HC Y100W, LC H32N) (antibody, V domains shown)
VH: EVQLVESGGDLARPGGSLKLSCVVSGFSLIGYDINWVRQAPGKGLQWVTMIWGDGTTDYNSALKSRFTVSRDNAMNTVYLQMNSLRVEDTAVYYCARGGWYYGTSYYFDYWGQGTLVTVSS
VL: DIVMTQTPLSLSVSPGETASISCRASQDISNNLNWFRQKPGQSPQRLIYYISRFHSGVPDRFSGSGSGTDFTLRISRVEADDTGVYYCQQSKTLPYTFGAGTKLEIK
notes: Point mutant of canE3M65 as full IgG; Constant regions are not restated
Kd [1]: 2.1 nM
Kd [2]: 4.35 nM

B2: LTM construct 44 (HC Y100W, LC S91E) (antibody, V domains shown)
VH: EVQLVESGGDLARPGGSLKLSCVVSGFSLIGYDINWVRQAPGKGLQWVTMIWGDGTTDYNSALKSRFTVSRDNAMNTVYLQMNSLRVEDTAVYYCARGGWYYGTSYYFDYWGQGTLVTVSS
VL: DIVMTQTPLSLSVSPGETASISCRASQDISNHLNWFRQKPGQSPQRLIYYISRFHSGVPDRFSGSGSGTDFTLRISRVEADDTGVYYCQQEKTLPYTFGAGTKLEIK
notes: as for B1
binding result [1]: no binding

B3: LTM construct 34 (HC Y100W, LC D28S, H32N) (antibody, V domains shown)
VH: EVQLVESGGDLARPGGSLKLSCVVSGFSLIGYDINWVRQAPGKGLQWVTMIWGDGTTDYNSALKSRFTVSRDNAMNTVYLQMNSLRVEDTAVYYCARGGWYYGTSYYFDYWGQGTLVTVSS
VL: DIVMTQTPLSLSVSPGETASISCRASQSISNNLNWFRQKPGQSPQRLIYYISRFHSGVPDRFSGSGSGTDFTLRISRVEADDTGVYYCQQSKTLPYTFGAGTKLEIK
notes: as for B1
Kd [3]: 0.639 nM
Kd [2]: 0.885 nM

B4: SSM58 (CAN-SSM58-VH, CAN-SSME3M-VL) (antibody, V domains shown)
VH: EVQLVESGGDLARPGGSLKLSCVVSGFSLIEYDINWVRQAPGKGLQWVTMIWGDGTTDYNSALKSRFTVSRDNAMNTVYLQMNSLRVEDTAVYYCARGGYWYATSYYFDYWGQGTLVTVSS
VL: DIVMTQTPLSLSVSPGETASISCRASQSISNNLNWFRQKPGQSPQRLIYYISSFHSGVPDRFSGSGSGTDFTLRISRVEADDTGVYYCQQSHTLPYTFGAGTKLEIK
Ki [4]: 4.2 nM
EC50, pERK inhibition, PC-12 (Rat Neuronal), pre-incubation 1 hour, 2/23/11 (SSM58) [5]: 1.05 nM
EC50, pERK inhibition, PC-12 (Rat Neuronal), pre-incubation 1 hour, 3/26/11 (SSM58) [5]: 0.65 nM
EC50, pERK inhibition, huTrkA (CHO), pre-incubation 1 hour, 3/26/11 (SSM58) [5]: 0.79 nM
EC50, pERK inhibition, huTrkA (CHO), pre-incubation 1 hour, 3/31/11 (SSM58) [5]: 0.86 nM
EC50, pERK inhibition, huTrkA (CHO), pre-incubation 6 hour, 3/31/11 (SSM58) [5]: 0.72 nM
Fold Potency Difference versus RN911, pERK inhibition, PC-12 (Rat Neuronal), pre-incubation 1 hour, 2/23/11 (SSM58) [5]: 1.6 fold
Fold Potency Difference versus RN911, pERK inhibition, PC-12 (Rat Neuronal), pre-incubation 1 hour, 3/26/11 (SSM58) [5]: 1.4 fold
Fold Potency Difference versus RN911, pERK inhibition, huTrkA (CHO), pre-incubation 1 hour, 3/26/11 (SSM58) [5]: 1.7 fold
Fold Potency Difference versus RN911, pERK inhibition, huTrkA (CHO), pre-incubation 1 hour, 3/31/11 (SSM58) [5]: 1.4 fold
Fold Potency Difference versus RN911, pERK inhibition, huTrkA (CHO), pre-incubation 6 hour, 3/31/11 (SSM58) [5]: 1.3 fold

B5: LTM135 (HC G103A, LC H32N) (antibody, V domains shown)
VH: EVQLVESGGDLARPGGSLKLSCVVSGFSLIGYDINWVRQAPGKGLQWVTMIWGDGTTDYNSALKSRFTVSRDNAMNTVYLQMNSLRVEDTAVYYCARGGYYYATSYYFDYWGQGTLVTVSS
VL: DIVMTQTPLSLSVSPGETASISCRASQDISNNLNWFRQKPGQSPQRLIYYISRFHSGVPDRFSGSGSGTDFTLRISRVEADDTGVYYCQQSKTLPYTFGAGTKLEIK
notes: Point mutant of canE3M65 as full IgG
Kd [6]: 0.0061 nM
Kd [7]: 0.138 nM
Kd [8]: 1.69 nM
koff [8]: 4.23e-05 s⁻¹
kon [8]: 25100 M⁻¹ s⁻¹

B6: SSM57 (CAN-SSM57-VH, CAN-SSME3M-VL) (antibody, V domains shown)
VH: EVQLVESGGDLARPGGSLKLSCVVSGFSLIQYDINWVRQAPGKGLQWVTMIWGDGTTDYNSALKSRFTVSRDNAMNTVYLQMNSLRVEDTAVYYCARGGYWYATSYYFDYWGQGTLVTVSS
VL: DIVMTQTPLSLSVSPGETASISCRASQSISNNLNWFRQKPGQSPQRLIYYISSFHSGVPDRFSGSGSGTDFTLRISRVEADDTGVYYCQQSHTLPYTFGAGTKLEIK
notes: also called PF 06442590; PF-06442591
Ki [4]: 4.2 nM
EC50, pERK inhibition, PC-12 (Rat Neuronal), pre-incubation 1 hour, 2/23/11 (SSM57) [5]: 1.08 nM
EC50, pERK inhibition, PC-12 (Rat Neuronal), pre-incubation 1 hour, 3/26/11 (SSM57) [5]: 0.65 nM
EC50, pERK inhibition, huTrkA (CHO), pre-incubation 1 hour, 3/26/11 (SSM57) [5]: 0.85 nM
EC50, pERK inhibition, huTrkA (CHO), pre-incubation 1 hour, 3/31/11 (SSM57) [5]: 0.86 nM
EC50, pERK inhibition, huTrkA (CHO), pre-incubation 6 hour, 3/31/11 (SSM57) [5]: 0.73 nM
Fold Potency Difference versus RN911, pERK inhibition, PC-12 (Rat Neuronal), pre-incubation 1 hour, 2/23/11 (SSM57) [5]: 1.6 fold
Fold Potency Difference versus RN911, pERK inhibition, PC-12 (Rat Neuronal), pre-incubation 1 hour, 3/26/11 (SSM57) [5]: 1.4 fold
Fold Potency Difference versus RN911, pERK inhibition, huTrkA (CHO), pre-incubation 1 hour, 3/26/11 (SSM57) [5]: 1.8 fold
Fold Potency Difference versus RN911, pERK inhibition, huTrkA (CHO), pre-incubation 1 hour, 3/31/11 (SSM57) [5]: 1.4 fold
Fold Potency Difference versus RN911, pERK inhibition, huTrkA (CHO), pre-incubation 6 hour, 3/31/11 (SSM57) [5]: 1.3 fold
